Among the targets are Notch2 (UniProt O35516 26-2473); Notch3 (UniProt Q61982 40-2318); Notch4 (UniProt P31695 21-1964).
Holding throughout (test): alkaline phosphatase fusion protein binding assay
Experiment [1] deals with Notch1, transfected into HEK293 cells and immunoprecipitated on protein G beads (UniProt Q07008 19-2531).

The Kd is the free concentration of one partner at which half of the binding sites on the other are occupied at equilibrium, for simple one-to-one binding. The low end stands for tighter binding, the high end for weaker binding.

Notch1, transfected into HEK293 cells and immunoprecipitated on protein G beads, sequence (Q07008 19-2531): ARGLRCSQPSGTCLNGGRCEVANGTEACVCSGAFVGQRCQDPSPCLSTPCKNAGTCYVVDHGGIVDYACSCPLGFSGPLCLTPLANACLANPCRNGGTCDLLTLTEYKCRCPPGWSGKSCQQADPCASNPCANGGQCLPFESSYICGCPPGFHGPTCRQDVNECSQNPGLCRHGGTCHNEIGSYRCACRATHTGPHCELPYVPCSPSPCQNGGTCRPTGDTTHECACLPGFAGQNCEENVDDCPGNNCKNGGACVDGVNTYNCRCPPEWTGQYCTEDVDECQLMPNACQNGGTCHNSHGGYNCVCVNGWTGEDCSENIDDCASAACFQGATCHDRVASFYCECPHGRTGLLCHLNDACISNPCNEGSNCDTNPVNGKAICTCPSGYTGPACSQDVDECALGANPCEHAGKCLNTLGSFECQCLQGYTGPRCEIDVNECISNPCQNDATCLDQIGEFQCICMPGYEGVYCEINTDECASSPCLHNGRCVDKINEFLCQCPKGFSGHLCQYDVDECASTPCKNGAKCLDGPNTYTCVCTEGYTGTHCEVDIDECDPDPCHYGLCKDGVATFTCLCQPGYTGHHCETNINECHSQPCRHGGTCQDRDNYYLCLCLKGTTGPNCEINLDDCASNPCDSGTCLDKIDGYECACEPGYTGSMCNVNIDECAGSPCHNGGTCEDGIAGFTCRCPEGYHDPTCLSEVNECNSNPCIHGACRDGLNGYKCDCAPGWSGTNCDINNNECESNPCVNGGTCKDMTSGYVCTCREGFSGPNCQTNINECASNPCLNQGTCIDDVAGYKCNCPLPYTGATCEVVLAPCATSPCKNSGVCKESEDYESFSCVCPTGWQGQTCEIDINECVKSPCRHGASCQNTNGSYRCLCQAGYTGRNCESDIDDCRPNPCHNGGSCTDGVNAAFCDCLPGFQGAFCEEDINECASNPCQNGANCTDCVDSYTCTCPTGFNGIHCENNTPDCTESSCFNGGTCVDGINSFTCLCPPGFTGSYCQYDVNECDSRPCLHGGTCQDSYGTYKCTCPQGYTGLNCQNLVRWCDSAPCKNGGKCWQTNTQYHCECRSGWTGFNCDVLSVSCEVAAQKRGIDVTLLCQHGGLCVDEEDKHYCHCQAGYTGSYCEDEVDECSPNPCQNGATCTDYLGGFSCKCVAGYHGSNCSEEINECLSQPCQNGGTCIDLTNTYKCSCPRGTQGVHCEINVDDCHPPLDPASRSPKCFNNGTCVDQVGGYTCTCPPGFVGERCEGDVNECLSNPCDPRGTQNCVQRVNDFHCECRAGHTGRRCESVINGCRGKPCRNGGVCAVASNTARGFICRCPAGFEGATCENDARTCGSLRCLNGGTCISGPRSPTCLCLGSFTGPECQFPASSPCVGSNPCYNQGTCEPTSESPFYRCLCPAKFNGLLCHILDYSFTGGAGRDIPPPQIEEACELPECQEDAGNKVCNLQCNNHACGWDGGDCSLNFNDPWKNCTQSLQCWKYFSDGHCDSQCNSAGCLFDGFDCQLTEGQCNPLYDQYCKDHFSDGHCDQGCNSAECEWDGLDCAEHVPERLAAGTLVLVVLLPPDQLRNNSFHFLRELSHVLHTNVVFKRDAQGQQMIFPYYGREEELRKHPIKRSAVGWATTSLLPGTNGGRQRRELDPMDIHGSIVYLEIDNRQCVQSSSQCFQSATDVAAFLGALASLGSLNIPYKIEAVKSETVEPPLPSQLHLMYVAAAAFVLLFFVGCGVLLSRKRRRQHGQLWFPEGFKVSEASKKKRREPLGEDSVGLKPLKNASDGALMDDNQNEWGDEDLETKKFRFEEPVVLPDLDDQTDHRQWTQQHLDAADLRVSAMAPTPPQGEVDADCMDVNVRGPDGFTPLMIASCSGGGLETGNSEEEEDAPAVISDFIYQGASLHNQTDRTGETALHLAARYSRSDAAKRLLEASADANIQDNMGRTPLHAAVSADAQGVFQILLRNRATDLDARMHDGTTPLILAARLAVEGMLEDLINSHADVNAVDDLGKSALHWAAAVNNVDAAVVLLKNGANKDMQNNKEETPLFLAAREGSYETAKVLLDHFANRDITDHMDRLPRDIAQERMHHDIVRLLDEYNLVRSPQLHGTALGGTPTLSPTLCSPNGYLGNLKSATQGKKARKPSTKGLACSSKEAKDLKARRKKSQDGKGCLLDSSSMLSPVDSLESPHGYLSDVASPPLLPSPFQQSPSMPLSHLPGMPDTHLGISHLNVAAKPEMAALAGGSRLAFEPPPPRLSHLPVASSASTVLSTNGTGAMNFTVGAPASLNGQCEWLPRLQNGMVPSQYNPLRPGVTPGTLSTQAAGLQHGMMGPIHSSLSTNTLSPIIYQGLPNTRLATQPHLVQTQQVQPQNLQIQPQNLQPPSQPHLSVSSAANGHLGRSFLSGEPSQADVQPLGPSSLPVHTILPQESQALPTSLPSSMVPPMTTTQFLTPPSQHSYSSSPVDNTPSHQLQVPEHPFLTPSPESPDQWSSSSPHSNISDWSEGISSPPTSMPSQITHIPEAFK
Notch4, sequence (P31695 21-1964): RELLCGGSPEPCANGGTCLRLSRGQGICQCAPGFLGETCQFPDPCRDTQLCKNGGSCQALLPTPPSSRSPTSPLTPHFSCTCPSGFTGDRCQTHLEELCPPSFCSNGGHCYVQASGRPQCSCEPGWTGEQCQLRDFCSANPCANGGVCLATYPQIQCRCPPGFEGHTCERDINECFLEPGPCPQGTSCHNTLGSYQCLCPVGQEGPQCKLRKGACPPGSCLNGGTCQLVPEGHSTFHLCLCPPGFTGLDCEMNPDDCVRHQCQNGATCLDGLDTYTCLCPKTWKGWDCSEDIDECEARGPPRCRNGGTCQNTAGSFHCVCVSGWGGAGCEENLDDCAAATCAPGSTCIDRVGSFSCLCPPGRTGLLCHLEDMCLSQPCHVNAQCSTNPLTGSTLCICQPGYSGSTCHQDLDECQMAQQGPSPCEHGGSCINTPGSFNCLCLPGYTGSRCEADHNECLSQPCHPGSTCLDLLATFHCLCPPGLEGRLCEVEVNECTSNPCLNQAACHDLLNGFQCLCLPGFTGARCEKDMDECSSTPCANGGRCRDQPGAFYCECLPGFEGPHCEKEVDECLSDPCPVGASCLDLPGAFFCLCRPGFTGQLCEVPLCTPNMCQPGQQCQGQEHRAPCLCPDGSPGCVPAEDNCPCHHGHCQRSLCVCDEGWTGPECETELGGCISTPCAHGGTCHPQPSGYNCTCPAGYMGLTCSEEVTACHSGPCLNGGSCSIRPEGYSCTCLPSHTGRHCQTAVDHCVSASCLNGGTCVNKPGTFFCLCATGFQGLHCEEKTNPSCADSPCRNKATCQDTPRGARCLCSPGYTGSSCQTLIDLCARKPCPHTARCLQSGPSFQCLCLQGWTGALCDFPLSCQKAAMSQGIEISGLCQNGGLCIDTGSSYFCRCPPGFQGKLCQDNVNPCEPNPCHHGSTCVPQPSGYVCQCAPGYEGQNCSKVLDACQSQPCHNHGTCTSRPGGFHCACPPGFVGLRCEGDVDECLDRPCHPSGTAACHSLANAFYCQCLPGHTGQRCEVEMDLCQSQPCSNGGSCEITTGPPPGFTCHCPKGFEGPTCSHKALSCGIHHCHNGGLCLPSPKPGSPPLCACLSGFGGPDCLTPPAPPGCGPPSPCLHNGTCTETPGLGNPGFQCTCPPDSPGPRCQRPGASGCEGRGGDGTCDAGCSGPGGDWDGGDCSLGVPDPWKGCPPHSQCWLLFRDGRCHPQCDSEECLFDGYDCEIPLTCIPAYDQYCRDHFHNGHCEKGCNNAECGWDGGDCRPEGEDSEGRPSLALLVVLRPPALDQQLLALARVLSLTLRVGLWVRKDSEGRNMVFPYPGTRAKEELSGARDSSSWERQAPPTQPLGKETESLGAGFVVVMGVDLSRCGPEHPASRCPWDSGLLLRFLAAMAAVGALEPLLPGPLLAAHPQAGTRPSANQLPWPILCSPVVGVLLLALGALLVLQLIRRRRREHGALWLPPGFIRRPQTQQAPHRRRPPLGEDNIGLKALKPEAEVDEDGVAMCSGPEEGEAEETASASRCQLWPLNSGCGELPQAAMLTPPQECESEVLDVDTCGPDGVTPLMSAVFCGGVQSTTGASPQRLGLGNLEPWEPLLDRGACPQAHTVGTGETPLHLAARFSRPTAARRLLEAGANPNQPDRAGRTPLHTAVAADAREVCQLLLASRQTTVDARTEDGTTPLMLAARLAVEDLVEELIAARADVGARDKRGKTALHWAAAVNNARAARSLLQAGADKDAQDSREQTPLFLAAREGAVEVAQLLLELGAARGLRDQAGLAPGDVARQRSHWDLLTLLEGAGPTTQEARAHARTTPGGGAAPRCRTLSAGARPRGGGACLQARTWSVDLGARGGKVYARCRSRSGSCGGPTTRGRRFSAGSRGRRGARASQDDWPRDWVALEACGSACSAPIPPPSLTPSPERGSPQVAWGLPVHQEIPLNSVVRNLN

B1: alkaline phosphatase tagged Botch (Botch-N-AP) (natural protein, UniProt Q8R3J5 1-223, looked up)
chain: MKQESASQSTPPPSLSPAPSSAQPSWGDGDPQALWIFGYGSLVWKPDFAYSDSRVGFVRGYSRRFWQGDTFHRGSDKMPGRVVTLLEDREGCTWGVAYQVRGEQVNEALKYLNVREAVLGGYDTKEVTFYPQDTPDQPLTALAYVATPQNPGYLGPAPEEVIATQILACRGFSGHNLEYLLRLADFMQLCGPQAQDEHLEAIVDAVGTLLPCSYLPEQPLALT
Take B1: the dissociation constant Kd in experiment [1] worked out at 3.3 nM; in the experiment with Notch2 it was 8.8 nM; with Notch3, 3.3 nM; in the experiment with Notch4, 6.3 nM.

The values above are taken from PMC3331935 (Developmental Cell, 2012).
